CN115043942A

Target: 人ROR1 ECD蛋白 (胞外结构域aa30-406) (human) (UniProt Q01973)
Assay: BLI (Octet ForteBio), antibody on AHC probe, human ROR1 ECD in solution, 1:1 model; mean of two determinations

UniProt Q01973, sequence (Q01973 30-406): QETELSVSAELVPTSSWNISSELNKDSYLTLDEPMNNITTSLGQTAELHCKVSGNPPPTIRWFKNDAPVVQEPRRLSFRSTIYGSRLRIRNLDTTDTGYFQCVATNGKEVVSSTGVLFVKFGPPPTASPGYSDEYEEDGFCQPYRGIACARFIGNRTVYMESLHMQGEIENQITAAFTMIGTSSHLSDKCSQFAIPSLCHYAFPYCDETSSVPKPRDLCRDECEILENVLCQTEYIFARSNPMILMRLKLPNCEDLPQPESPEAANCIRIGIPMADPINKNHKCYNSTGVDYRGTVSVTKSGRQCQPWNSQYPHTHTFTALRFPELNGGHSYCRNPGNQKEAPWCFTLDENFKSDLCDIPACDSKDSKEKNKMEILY

B1: 抗人ROR1抗体UC961 (带有人IgG1) (antibody, from another filing, V domains shown)
VH: QVQLQESGPGLVKPSQTLSLTCTVSGYAFTAYNIHWVRQAPGQGLEWMGSFDPYDGGSSYNQKFKDRLTISKDTSKNQVVLTMTNMDPVDTATYYCARGWYYFDYWGHGTLVTVSS
VL: DIVMTQTPLSLPVTPGEPASISCRASKSISKYLAWYQQKPGQAPRLLIYSGSTLQSGIPPRFSGSGYGTDFTLTINNIESEDAAYYFCQQHDESPYTFGEGTKVEIK
Kd: 15.8 nM
koff: 0.0137 s⁻¹
kon: 981000 M⁻¹ s⁻¹
